System: MS2 coat protein
Experiment: apparent KD of MS2 coat protein; designed switch direction (-1 OFF switch, 1 ON switch): 1; higher = weaker reporter binding
Procedure, shortened: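 Transcription of designed RNA switches on Illumina chips was done by stalled E. coli RNA polymerase. SNAP-549-labelled MS2 coat protein was then titrated in doubling steps from 0.7 or 1.5 nM to 3 µM, with steps of 0.8–1.5 h at the lowest and 10–20 min at the highest concentration. The per-design median over clusters of curve-fitted normalised fluorescence is reported as apparent KD.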

[1] = input ligand: microRNA oligo, concentration not stated
[2] = Eterna round: R95, input ligand: microRNA oligo, concentration not stated
[3] = Eterna round: R95, input ligand: FMN 200 uM
[4] = Eterna round: R95, input ligand: none

Sequence	apparent KD of MS2 coat protein (input ligand: FMN 200 uM) [nM]	apparent KD of MS2 coat protein [1] [nM]	apparent KD of MS2 coat protein (input ligand: none) [nM]	apparent KD of MS2 coat protein [2] [nM]	apparent KD of MS2 coat protein [3] [nM]	apparent KD of MS2 coat protein [4] [nM]
GCCGCGUUUCGCGCCUACAUGAGGAUCACCCAUGUUUGUAGGCAGGAUAUCGUUUGCUUUGCAAACGAGAAGGGCUGUUGUGGC [salish99_SSNG3_R04_012] (Eterna round: R96, puzzle: Same State NG 3)	29.9	47.2	50.2	–	–	–
GUUAUUUAUGCAGGAUAUGAUUAACAUGAGGAUCACCCAUGUGGUGUUGUGAGUAAGGAGAGUGAUCAGAAGGGCAUUUUUUUU [JMF's solution 77] (Eterna round: R96, puzzle: Same State NG 2)	626	298	565	–	–	–
CAGCACUAUCGAGAGGAUAUGCGGUGAUGGACAUGAGGAUCACCCAUGUUAGCGAUGGCAUCACGGCAGAAGGCUCUGCUGCUGC [Soteed Omei mod 38] (puzzle: Same State 2)	–	–	–	13.2	–	–
GUUCGGAAUCGAGCUGACAUGAGGAUCACCCAUGUUAGUGGGAAGGAUAUGGUACAGAAACUGUACCAGAAGGUCUUACUGUCU (Eterna round: R96, puzzle: Same State NG 3)	47	66.7	67.4	–	–	–
UGUUGUAUUACAGGAUAUCUAUGAUUUUUAUUUAGAGAAGGGUAUUCACAUGAGGAUCACCCAUGUAUAUACGAGGAAGUUGUG [JMF's solution 11] (Eterna round: R96, puzzle: Same State NG 1)	–	36.8	–	–	–	–
ACAUGAGAGAUAGGAUAUCUUGUACCUACAUGUGACAUGAGGAUCACCCAUGUGGUAAGUAUGAGAGAGAAGGAUCAGAUAUGU [Equivalence 36 - Jieux - Same State NG 2] (Eterna round: R96, puzzle: Same State NG 2)	14.1	14.3	21.2	–	–	–
GACCGCGAGGAAGGAUAUGGAGCCUUAUUGGCUCCAGAAGGUCCAUAAAGGACAUGAGGAUCACCCAUGUGGUGAGAAGCGGUC [Fiskers NG1ss - 27] (Eterna round: R96, puzzle: Same State NG 1)	–	788	–	–	–	–
AAGAAGACGAACAAGGAUAUGUCAAAGGAAACAUGAGGAUCACCCAUGUAGAGAUUGGAAAAGAAACAGAAGGUGUACAGAGAGA [JR_SS2_Sub006] (puzzle: Same State 2)	–	–	–	33.2	18.7	24.5
GGAGCCGGCCUAGGAUAUUUCAUAUAAAUACAUGAGGAUCACCCAUGUAGGCCAGAAGGCCUUGGGAAGAAGGAGGUCGGCUCC [Loop Effect - U25,U29] (Eterna round: R96, puzzle: Same State NG 2)	13	20.4	31.5	–	–	–
ACAAGCUUUUCUGUAUUGAAAGGUGGGAUACAUGAGGAUCACCCAUGUUUUUUUGUUUAUUUUUUUCCUCGUCUUAU [JR_SHM208A_Sub088] (puzzle: Sensor for hsa-mir-208a)	–	–	–	37.8	34.3	34.3
UGGAUCUAGGCUUGCCUGGGUCCAUGUUGACAUGAGGAUCACCCAUGUGUAUUUUUUAAGCUUUUUGUUUGUCAACU [JL A Humble Attempt mod 9] (puzzle: Sensor for hsa-mir-208a)	–	–	–	12.5	28.3	29.3
CCACUCUGCGGAGGAUAUGGGCCUGCCCGGGAUAACGGGCCUAAUACAUGAGGAUCACCCAUGUCCCAGAAGGCCGCUAGAGCC [Xeusza] (Eterna round: R96, puzzle: Same State NG 2)	18.8	92.4	139	–	–	–
AACAAUCUAUCUGAGGAUAUCAUGAAAAAAACAUGAGGAUCACCCAUGUGCAGGAAAACUGCAUAUGAGAAGGCAGAUAGAUUGU [salish99_SS2_r3_002] (puzzle: Same State 2)	–	–	–	621	28.9	769
UUGAUGUACUGAGGAUAUCGUGUCGUCUGUUUUUACAUGAGGAUCACCCAUGUGGGUUGUGGUAUCGAGAAGGCAGUUUUCUUA [JR_SSNG2_Sub030] (Eterna round: R96, puzzle: Same State NG 2)	306	560	582	–	–	–
GGUGCCAAUAAAGCCUACAUGAGGAUCACCCAUGUAUGUAGGCAGGAUAUCGUUUGCUUUGCAAACGAGAAGGGCCUAGGCACC [JL SSNG3 1.21] (Eterna round: R96, puzzle: Same State NG 3)	16.3	24.3	29.8	–	–	–
CAGCGCUGUCGAGAGGAUAUGCGGUGAUGGACAUGAGGAUCACCCAUGUUAGCGAUAGUAUUACGGUAGAAGGCUCUACAGCUGC [Soteed - 11] (puzzle: Same State 2)	–	–	–	43.6	–	–
UGUCCAGCCUGAGCUGGACAAAAGCAUGUACAUGAGGAUCACCCAUGUUCAUGUACAAGCUUUUUGCUCGUCUUACC [salish99_208a_r3_083] (puzzle: Sensor for hsa-mir-208a)	–	–	–	15.9	464	610
GCCAUCGUGUGAGGAUAUGGCACCGAAACGGUGCCAGAAGGCAUGUCAAUUGACAUGAGGAUCACCCAUGUAUUAGCGAUGGCA [Mat - Same State NG 1 - JL mod - D86] (Eterna round: R96, puzzle: Same State NG 1)	181	994	1360	–	–	–
ACCCACGACGGAGGAUAUGGGCACUCGGCGGAAUAAACCGCCAUAACAUGAGGAUCACCCAUGUCCCAGAAGGCCGUCGCAAUC [Esdirece] (Eterna round: R96, puzzle: Same State NG 2)	109	404	712	–	–	–
UGUCCAGCCUGAGCUGGACAAAAGCAUGUACAUGAGGAUCACCCAUGUUCAUGUACAAGCUUUUUGCUCGUCUUAGU [salish99_208a_r3_065] (puzzle: Sensor for hsa-mir-208a)	–	–	–	13.8	489	619
UCUUGGUUUUUGCUCGUUUUUUGUGUUGAACAUGAGGAUCACCCAUGUAUUGUACGGUCCGAUUUAAUAGUGGUCCG [JMF 19] (puzzle: Sensor for hsa-mir-208a)	–	–	–	14.8	24.4	27
UUUAUAUUCAGAGGAUAUUAAAGUAGUAUAACAUAAGAAGGCUGUUUGUUUUGUAAAGUAAUUCUACAUGAGGAUCACCCAUGU [JR_SSNG1_Sub085] (Eterna round: R96, puzzle: Same State NG 1)	–	15.8	–	–	–	–
